Experimental data as given in PMC6168492.

Legend:
[1] = target: DIII of HSA (residues 381-585) with C-terminal GST (human); test: SPR; Biacore T200; albumin variants amine-coupled on CM5 (~200 or 500 RU); monomeric His-tagged hFcRn or mFcRn injected in serial dilutions; phosphate buffer (177 mM phosphate, 85 mM NaCl, 0.05% Tween 20) pH 5.5, 30 µl/min, 25 °C; 1:1 Langmuir model
[2] = target: MSA-hLoopI + II (MSA N83T/L87M/S111N/P114R) with C-terminal GST (mouse); test: as above
[3] = target: MSA P573K with C-terminal GST (mouse); test: as above
[4] = target: HSA-mLoopI + II (HSA T83N/M87L/N111S/R114P) with C-terminal GST (human); test: as above
[5] = target: HSA-mDI (HSA with mouse DI, residues 1-190 from MSA) with C-terminal GST (mouse | human); test: as above
[6] = target: HSA N111S with C-terminal GST (human); test: as above
[7] = target: HSA K573P with C-terminal GST (human); test: as above
[8] = target: HSA R114P with C-terminal GST (human); test: as above
[9] = target: MSA-hDI (MSA with human DI, residues 1-190 from HSA) with C-terminal GST (human | mouse); test: as above
[10] = target: DIII of MSA (residues 381-584) with C-terminal GST (mouse); test: as above
[11] = target: wild-type mouse serum albumin with C-terminal GST (mouse); test: SPR; albumin immobilised (200 RU) on CM5 chip by amine coupling, serial dilutions of monomeric His-tagged FcRn injected; pH 5.5, 0.005% Tween20, 30 µl/min, 25 °C; 1:1 Langmuir model
Chain of wild-type mouse serum albumin with C-terminal GST (mouse) (P07724 25-608): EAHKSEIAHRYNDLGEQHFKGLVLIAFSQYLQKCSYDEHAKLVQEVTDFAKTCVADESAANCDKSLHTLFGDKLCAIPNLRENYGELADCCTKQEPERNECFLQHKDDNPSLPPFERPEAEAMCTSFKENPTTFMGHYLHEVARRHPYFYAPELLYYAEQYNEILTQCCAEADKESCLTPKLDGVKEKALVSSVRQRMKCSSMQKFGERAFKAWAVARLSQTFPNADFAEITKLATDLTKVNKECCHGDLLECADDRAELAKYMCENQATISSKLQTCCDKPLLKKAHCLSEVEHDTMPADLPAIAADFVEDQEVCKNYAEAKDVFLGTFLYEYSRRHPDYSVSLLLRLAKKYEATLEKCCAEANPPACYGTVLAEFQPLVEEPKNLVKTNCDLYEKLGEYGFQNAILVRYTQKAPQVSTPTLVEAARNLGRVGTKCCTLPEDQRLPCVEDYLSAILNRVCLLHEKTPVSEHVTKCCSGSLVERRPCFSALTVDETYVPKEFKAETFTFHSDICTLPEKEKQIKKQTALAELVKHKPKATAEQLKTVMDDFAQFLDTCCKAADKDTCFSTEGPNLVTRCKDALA

Kd [2] | koff [2] | kon [2] | Kd [7] | koff [7] | kon [7] | Kd [9] | koff [9] | kon [9] | Kd [10] | koff [10] | kon [10] | Substance | also measured
145 nM | 0.0074 s⁻¹ | 51000 M⁻¹ s⁻¹ | 22.2 nM | 0.0006 s⁻¹ | 27000 M⁻¹ s⁻¹ | 70.2 nM | 0.0047 s⁻¹ | 67000 M⁻¹ s⁻¹ | 119 nM | 0.0057 s⁻¹ | 48000 M⁻¹ s⁻¹ | soluble monomeric His-tagged human neonatal Fc receptor (hFcRn) (from UniProt P55899 24-297; P61769 21-119) | Kd [1]: 3170 nM; koff [1]: 0.0349 s⁻¹; kon [1]: 11000 M⁻¹ s⁻¹; Kd [3]: 3670 nM; koff [3]: 0.0734 s⁻¹; kon [3]: 20000 M⁻¹ s⁻¹; Kd [4]: 823 nM; koff [4]: 0.0214 s⁻¹; kon [4]: 26000 M⁻¹ s⁻¹; Kd [5]: 1440 nM; koff [5]: 0.0202 s⁻¹; kon [5]: 14000 M⁻¹ s⁻¹; Kd [6]: 162 nM; koff [6]: 0.006 s⁻¹; kon [6]: 37000 M⁻¹ s⁻¹; Kd [8]: 554 nM; koff [8]: 0.0122 s⁻¹; kon [8]: 22000 M⁻¹ s⁻¹
375 nM | 0.0075 s⁻¹ | 20000 M⁻¹ s⁻¹ | 1230 nM | 0.0197 s⁻¹ | 16000 M⁻¹ s⁻¹ | 705 nM | 0.0148 s⁻¹ | 21000 M⁻¹ s⁻¹ | 620 nM | 0.0093 s⁻¹ | 15000 M⁻¹ s⁻¹ | soluble monomeric His-tagged mouse neonatal Fc receptor (mFcRn) (from UniProt Q61559 22-297; P01887 21-119) | 
 |  |  |  |  |  |  |  |  |  |  |  | soluble mouse neonatal Fc receptor (mFcRn), His-tagged, monomeric (from UniProt Q61559 22-365; P01887 21-119) | Kd [11]: 324 nM; koff [11]: 0.0123 s⁻¹; kon [11]: 38000 M⁻¹ s⁻¹
